The text below walks through data of PMC12589613.

The test has as its target MDA5ΔN (residues 287–1025) (human) (UniProt Q9BYX4).

Chain of MDA5ΔN (residues 287–1025) (human) (Q9BYX4 287-1025, stated change not applied): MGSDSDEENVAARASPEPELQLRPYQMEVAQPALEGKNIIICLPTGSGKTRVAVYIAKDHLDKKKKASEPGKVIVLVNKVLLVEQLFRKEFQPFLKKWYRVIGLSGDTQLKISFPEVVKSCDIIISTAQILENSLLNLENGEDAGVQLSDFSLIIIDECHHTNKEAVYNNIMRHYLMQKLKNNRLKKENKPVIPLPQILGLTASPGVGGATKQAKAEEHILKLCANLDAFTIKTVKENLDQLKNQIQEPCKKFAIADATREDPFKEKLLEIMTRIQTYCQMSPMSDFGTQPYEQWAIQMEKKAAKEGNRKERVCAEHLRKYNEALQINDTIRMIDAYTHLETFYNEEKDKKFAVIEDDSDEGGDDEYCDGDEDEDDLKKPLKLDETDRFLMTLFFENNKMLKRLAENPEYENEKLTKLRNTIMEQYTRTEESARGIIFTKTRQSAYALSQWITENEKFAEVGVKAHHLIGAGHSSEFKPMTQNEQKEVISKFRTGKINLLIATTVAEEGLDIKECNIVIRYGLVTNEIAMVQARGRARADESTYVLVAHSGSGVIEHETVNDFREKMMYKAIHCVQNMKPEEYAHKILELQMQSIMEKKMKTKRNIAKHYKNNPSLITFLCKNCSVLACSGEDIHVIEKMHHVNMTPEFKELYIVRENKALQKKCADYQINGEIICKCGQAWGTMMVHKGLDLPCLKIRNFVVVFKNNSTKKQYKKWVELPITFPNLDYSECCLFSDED

B1: LGP2(E116A, E117A, D603A) (natural protein)
chain: MELRSYQWEVIMPALEGKNIIIWLPTGAGKTRAAAYVAKRHLETVDGAKVVVLVNRVHLVTQHGEEFRRMLDGRWTVTTLSGDMGPRAGFGHLARCHDLLICTAELLQMALTSPEAAEHVELTVFSLIVVDECHHTHKDTVYNVIMSQYLELKLQRAQPLPQVLGLTASPGTGGASKLDGAINHVLQLCANLDTWCIMSPQNCCPQLQEHSQQPCKQYNLCHRRSQDPFGDLLKKLMDQIHDHLEMPELSRKFGTQMYEQQVVKLSEAAALAGLQEQRVYALHLRRYNDALLIHDTVRAVDALAALQDFYHREHVTKTQILCAERRLLALFDDRKNELAHLATHGPENPKLEMLEKILQRQFSSSNSPRGIIFTRTRQSAHSLLLWLQQQQGLQTVDIRAQLLIGAGNSSQSTHMTQRDQQEVIQKFQDGTLNLLVATSVAEEGLDIPHCNVVVRYGLLTNEISMVQARGRARADQSVYAFVATEGSRELKRELINEALETLMEQAVAAVQKMDQAEYQAKIRDLQQAALTKRAAQAAQRENQRQQFPVEHVQLLCINCMVAVGHGSDLRKVEGTHHVNVNPNFSNYYNVSRDPVVINKVFKAWKPGGVISCRNCGEVWGLQMIYKSVKLPVLKVRSMLLETPQGRIQAKKWSRVPFSVPDFDFLQHCAENLSDLSLD
Molecule B1 displayed a proportion of MDA5ΔN translocation events that were stopped (immobile) on 11.6-kb dsRNA with LGP2(intermut), smTIRF of 23%.
